Results as given in patent publication US20180193456A1 (HENLIUS BIOTECH, published 2018).
Each block holds one binder with its values, some of them ahead of it.

Key:
VEGFR2-AP [1] = target: T1, VEGFR2-AP (UniProt P35968 20-764); assay: competition ELISA: antibody pre-incubated with VEGFR2-AP, mixture added to VEGF-coated wells, A405; blocked ligand: VEGF
T1 construct: also called AP-conjugated VEGFR2; AP-conjugated VEGFR; not shown: alkaline phosphatase (AP)

VEGFR2 = target: T2, VEGFR2 (UniProt P35968 20-764, limits assumed); assay: SPR; antigen construct and format not stated
T2 construct: The SPR paragraphs name neither antigen construct nor format

VEGFR2-AP [2] = target: T1, VEGFR2-AP; assay: ELISA, antibody captured with anti-Fc, VEGFR2-AP added (axis printed OD450)
VEGFR2-Fc = target: T3, VEGFR2-Fc (UniProt P35968 20-764, limits assumed); assay: ELISA, VEGFR2-Fc coated, anti-human kappa-HRP, OD450
T3 construct: also called biotinylated VEGFR2-Fc; not shown: Fc

[3] = target: T4, VEGFR2-D5-7-AP fusion protein (UniProt P35968 421-764); assay: ELISA: antibody captured with sheep anti-human Fd, VEGFR2-D5-7-AP added, pNPP, A405
T4 construct: domain: domains 5-7; also called domains 5-7 of VEGFR2; not shown: alkaline phosphatase (AP) fusion partner

Mouse VEGFR2-Fc = target: T5, Mouse VEGFR2-Fc (mouse, UniProt P35918 20-762, limits assumed); assay: ELISA, mouse VEGFR2-Fc coated, anti-human kappa-HRP, A450
T5 construct: not shown: Fc

VEGFR2-AP [4] = target: T1, VEGFR2-AP; assay: ELISA, antibody captured with anti-Fd, VEGFR2-AP added (axis printed OD450)
[5] = target: T6, human VEGFR3-Fc (R&D Systems) (human, UniProt P35916 25-776); assay: ELISA, human VEGFR3-Fc coated, goat anti-human F(ab)'2-HRP, OD450
T6 construct: Bought; not shown: Fc
T6 sequence (looked up): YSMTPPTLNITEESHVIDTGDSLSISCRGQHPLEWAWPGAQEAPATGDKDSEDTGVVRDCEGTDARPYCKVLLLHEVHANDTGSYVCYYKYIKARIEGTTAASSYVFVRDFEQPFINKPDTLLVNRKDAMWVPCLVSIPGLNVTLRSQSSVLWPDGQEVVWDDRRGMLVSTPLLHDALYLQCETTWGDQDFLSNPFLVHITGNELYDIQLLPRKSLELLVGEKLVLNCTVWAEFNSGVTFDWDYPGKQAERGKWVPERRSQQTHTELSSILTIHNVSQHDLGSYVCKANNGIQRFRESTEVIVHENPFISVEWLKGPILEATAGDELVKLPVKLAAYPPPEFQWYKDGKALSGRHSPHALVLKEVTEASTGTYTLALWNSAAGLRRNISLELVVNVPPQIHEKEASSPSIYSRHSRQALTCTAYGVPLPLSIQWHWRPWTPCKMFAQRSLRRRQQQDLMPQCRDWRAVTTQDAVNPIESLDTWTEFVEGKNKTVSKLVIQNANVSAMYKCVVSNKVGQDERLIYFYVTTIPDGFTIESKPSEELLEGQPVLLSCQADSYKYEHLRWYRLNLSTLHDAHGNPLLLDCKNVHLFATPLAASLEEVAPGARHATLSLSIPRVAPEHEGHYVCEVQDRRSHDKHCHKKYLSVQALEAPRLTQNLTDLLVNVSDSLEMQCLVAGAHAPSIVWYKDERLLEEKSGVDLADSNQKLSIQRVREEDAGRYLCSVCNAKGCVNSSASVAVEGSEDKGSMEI

[6] = target: T7, recombinant human VEGFR1-Fc fusion protein (R&D Systems) (human, UniProt P17948-2 27-687, limits assumed); assay: ELISA, human VEGFR1-Fc coated, goat anti-human F(ab)'2-HRP, OD450
T7 construct: Bought; not shown: Fc
T7 sequence (P17948 other isoform, or with tags, fused parts or gaps limits assumed): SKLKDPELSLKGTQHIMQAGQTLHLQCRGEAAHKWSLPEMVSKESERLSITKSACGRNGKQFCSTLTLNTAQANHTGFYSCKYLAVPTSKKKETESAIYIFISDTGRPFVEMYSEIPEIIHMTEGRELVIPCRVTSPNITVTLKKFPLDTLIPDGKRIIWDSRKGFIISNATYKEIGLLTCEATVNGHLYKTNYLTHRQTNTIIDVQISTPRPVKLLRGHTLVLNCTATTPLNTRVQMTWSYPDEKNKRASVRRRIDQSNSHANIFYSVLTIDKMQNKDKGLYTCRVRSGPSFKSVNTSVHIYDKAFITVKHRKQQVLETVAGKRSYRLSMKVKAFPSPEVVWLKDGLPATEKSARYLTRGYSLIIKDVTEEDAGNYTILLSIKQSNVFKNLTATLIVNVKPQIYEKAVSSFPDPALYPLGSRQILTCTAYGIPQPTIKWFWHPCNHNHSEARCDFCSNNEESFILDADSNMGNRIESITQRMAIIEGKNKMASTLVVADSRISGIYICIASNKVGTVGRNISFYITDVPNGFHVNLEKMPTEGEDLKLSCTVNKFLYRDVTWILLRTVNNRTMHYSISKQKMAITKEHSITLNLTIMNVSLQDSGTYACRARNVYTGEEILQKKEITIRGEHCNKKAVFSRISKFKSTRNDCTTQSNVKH

T1 sequence (P35968 20-764): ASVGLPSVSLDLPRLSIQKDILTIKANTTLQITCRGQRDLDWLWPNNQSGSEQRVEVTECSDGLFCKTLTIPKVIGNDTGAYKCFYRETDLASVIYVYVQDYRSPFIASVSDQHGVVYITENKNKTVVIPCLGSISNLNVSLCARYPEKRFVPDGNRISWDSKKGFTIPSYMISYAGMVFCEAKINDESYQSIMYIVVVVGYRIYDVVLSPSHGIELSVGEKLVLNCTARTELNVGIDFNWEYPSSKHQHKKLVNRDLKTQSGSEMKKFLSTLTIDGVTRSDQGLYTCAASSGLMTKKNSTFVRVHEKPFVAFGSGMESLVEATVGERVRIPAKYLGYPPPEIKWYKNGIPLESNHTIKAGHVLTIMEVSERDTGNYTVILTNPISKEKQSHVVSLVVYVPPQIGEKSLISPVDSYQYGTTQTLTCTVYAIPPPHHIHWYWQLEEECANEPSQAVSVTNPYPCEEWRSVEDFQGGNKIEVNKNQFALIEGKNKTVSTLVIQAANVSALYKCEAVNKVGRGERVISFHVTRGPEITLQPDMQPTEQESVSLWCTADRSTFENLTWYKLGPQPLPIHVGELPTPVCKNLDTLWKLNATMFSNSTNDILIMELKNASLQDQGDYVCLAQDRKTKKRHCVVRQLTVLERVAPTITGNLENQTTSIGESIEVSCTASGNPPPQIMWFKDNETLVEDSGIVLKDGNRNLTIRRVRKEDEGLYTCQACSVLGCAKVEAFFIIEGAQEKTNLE
T2 sequence (P35968 20-764 limits assumed): as the sequence (P35968 20-764) above
T5 sequence (P35918 20-762 limits assumed): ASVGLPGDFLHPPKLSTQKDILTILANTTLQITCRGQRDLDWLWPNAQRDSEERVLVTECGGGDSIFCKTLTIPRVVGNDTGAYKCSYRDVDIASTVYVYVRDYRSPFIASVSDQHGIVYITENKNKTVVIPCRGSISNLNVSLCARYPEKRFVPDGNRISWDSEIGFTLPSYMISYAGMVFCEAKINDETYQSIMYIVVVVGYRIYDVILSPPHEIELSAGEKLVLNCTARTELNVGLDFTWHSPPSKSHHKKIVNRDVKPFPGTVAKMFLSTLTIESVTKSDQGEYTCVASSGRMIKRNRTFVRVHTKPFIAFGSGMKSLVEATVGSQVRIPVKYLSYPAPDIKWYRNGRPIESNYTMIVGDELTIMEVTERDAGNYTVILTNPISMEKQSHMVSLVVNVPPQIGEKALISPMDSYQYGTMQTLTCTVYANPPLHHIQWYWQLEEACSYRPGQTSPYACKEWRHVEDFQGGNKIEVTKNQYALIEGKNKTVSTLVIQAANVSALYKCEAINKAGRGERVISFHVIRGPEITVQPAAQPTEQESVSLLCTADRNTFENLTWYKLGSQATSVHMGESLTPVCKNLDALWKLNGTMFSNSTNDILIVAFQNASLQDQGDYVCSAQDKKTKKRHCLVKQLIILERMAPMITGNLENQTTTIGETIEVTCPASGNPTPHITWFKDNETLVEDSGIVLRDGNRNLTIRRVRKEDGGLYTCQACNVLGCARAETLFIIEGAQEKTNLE
T4 sequence (P35968 421-764): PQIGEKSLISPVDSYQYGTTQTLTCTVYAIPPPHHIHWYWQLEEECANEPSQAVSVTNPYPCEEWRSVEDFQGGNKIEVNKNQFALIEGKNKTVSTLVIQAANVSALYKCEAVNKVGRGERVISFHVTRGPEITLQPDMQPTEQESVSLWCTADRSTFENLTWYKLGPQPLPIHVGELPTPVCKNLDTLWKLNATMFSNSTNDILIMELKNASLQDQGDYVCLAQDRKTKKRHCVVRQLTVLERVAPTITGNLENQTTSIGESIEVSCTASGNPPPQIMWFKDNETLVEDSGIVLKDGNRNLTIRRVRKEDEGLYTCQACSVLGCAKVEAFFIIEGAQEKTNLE
T3 sequence (P35968 20-764 limits assumed): as the sequence (P35968 20-764) above

- IC50 (read off the curve) (VEGFR2-AP [1]): ~0.05 µg/mL
- Kd (VEGFR2): 1.28 nM
- koff (VEGFR2): 0.000962 s⁻¹
- kon (VEGFR2): 752000 M⁻¹ s⁻¹
- EC50 (read off the curve) (VEGFR2-AP [2]): ~0.3 µg/mL
- EC50 (read off the curve) (VEGFR2-Fc): ~0.5 µg/mL
- binding result [3]: no binding (tested: 3 µg/mL)
- binding result (Mouse VEGFR2-Fc): no binding (tested: 500 µg/mL)
- EC50 (read off the curve) (VEGFR2-AP [4]): ~0.6 µg/mL
B1: 1121B (antibody, V domains shown)
VH: EVQLVQSGGGLVKPGGSLRLSCAASGFTFSSYSMNWVRQAPGKGLEWVSSISSSSSYIYYADSVKGRFTISRDNAKNSLYLQMNSLRAEDTAVYYCARVTDAFDIWGQGTMVTVSS
VL: EIVMTQSPATLSLSPGERATLSCRASQSVSSYLAWYQQKPGQAPRLLIYDSSNRATGIPARFSGSGSGTDFTLTISSLEPEDFATYYCLQHNTFPPTFGQGTKVEIKR
notes: Anti-VEGFR2 antibody of US 2009/0306348, positive control; The entries are called variable domains but run into the start of the constant domains

- EC50 (read off the curve) [5]: ~1 µg/mL
- binding result (Mouse VEGFR2-Fc): no binding (tested: 500 µg/mL)
- binding result [6]: no binding (tested: 20 µg/mL)
B2: 1121N (antibody, V domains shown)
VH: B1 VH
VL: DIQMTQSPSSVSASIGDRVTITCRASQGIDNWLGWYQQKPGKAPKLLIYDASNLDTGVPSRFSGSGSGTYFTLTISSLQAEDFAVYFCQQAKAFPPTFGGGTKVDIKG
notes: Anti-VEGFR2 antibody of U.S. Pat. No. 7,498,414, positive control; Entries run into the start of the constant domains
